Measurements from publication PMC8664259.

T1: TAF7 (WT) (UniProt Q15545 1-349)
T1 sequence: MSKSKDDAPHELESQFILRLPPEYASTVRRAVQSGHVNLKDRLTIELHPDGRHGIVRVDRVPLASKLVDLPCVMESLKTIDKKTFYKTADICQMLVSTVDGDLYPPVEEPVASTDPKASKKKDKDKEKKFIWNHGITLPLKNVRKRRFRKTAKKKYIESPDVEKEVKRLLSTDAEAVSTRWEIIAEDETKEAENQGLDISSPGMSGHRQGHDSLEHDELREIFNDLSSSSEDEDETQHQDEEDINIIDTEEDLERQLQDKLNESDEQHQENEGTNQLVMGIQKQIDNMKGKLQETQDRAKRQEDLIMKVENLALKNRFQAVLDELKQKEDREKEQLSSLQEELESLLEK


Biological target: T1, TAF7 (WT)
Assay: EMSA

| Binder | binding result |
| --- | --- |
| GGCAGAUCUGAGCCUGGGAGCUCUCUGCC (structured_RNA) [HIV-1 TAR RNA] | binds |
| GGCAGAAAGGAGCAUUGGAGCUCUCUGCC (structured_RNA) [TARmut RNA] | no binding |
